We go through six molecules from PMC9352930, “Structure-Guided Engineering of a Complement Component C3-Binding Nanobody Improves Specificity and Adds Cofactor Activity” (Frontiers in Immunology, 2022).

Holding throughout (conditions): both partners purified
In assay [1] the target is T1, C3b (proteolytic fragment of complement component C3) (human, UniProt P01024).
T1 construct: complement component C3, human, beta chain; complement component C3, human, alpha' chain (alpha chain after release of C3a); also called human C3b; source: generated from native plasma C3 by trypsin cleavage, purified
Kind of assay: SPR; biotinylated C-terminally avi-tagged nanobody on streptavidin (CM500M chip); native C3, C3b and C3MA injected at 0.4-200 nM; 20 mM HEPES pH 7.5, 150 mM NaCl, 0.05% Tween 20, 25°C; 1:1 model; KD for native C3 called apparent. (Surface plasmon resonance follows binding to a sensor surface in real time, without labels.)

In assay [2] the target is T1, C3b (proteolytic fragment of complement …). Briefly: BLI; kinetics: EWE, EWEµH or EWEnH held on anti-penta his (His1K) biosensors, dilution series of C3b or iC3b; 20 mM HEPES pH 7.5, 150 mM NaCl, 30°C; 1:1 model. In general terms: In BLI a coated tip is dipped into the sample, and binding shifts an interference pattern.
Another assay concerns the target T2, iC3b (human).
T2 construct: complement component C3, human, beta chain; it says only that FI degrades C3b to iC3b; copies: + +
The assay is described as above.

The target in assay [3] is T1, C3b (proteolytic fragment of complement …). Briefly: SEC; C3 or C3b mixed with a two-fold molar excess of nanobody, 5 min on ice; Superdex 200 increase, 20 mM HEPES pH 7.5, 150 mM NaCl; peak fractions on SDS-PAGE. For orientation: Size exclusion chromatography separates by hydrodynamic size, large species first.
Assay [4] has the same target. Kind of assay: BLI; single concentration: nanobody variant held on anti-penta his (His1K) biosensors, transferred into 50 nM C3 or C3b for 180 s; 20 mM HEPES pH 7.5, 150 mM NaCl, 30°C.

T2 sequence (chain, as listed by the source, chain 1 of 3): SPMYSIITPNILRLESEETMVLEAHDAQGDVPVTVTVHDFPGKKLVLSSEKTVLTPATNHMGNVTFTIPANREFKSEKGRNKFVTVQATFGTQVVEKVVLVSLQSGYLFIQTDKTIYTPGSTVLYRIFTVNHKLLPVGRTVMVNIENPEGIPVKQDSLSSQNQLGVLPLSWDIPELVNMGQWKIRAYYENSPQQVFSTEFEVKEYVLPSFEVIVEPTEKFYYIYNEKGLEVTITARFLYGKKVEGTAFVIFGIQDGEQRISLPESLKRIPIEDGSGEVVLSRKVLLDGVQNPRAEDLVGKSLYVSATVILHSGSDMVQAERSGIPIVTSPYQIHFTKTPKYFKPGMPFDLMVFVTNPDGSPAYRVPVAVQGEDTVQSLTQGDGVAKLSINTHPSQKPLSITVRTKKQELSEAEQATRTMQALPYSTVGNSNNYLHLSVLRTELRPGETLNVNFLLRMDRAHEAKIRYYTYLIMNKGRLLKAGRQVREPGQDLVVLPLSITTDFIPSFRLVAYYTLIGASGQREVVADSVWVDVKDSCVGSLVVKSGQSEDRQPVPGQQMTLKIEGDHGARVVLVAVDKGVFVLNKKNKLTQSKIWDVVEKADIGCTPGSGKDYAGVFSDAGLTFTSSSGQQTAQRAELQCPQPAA
T2 sequence (chain, as listed by the source, chain 2 of 3): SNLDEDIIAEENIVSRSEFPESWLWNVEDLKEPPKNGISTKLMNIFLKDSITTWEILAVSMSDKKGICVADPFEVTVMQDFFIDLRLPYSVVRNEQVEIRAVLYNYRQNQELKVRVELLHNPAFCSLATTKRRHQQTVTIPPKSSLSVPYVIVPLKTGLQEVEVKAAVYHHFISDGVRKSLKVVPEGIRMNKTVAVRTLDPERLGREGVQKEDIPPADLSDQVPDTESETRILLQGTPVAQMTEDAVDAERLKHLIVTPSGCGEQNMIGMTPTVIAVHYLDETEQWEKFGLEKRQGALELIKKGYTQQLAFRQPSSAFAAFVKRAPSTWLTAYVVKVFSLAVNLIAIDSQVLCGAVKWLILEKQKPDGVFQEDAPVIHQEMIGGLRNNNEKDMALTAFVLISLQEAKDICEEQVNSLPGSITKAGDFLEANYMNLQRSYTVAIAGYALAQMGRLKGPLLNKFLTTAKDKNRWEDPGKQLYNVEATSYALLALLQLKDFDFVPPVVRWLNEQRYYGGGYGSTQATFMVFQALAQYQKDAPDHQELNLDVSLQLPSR
T2 sequence (chain, as listed by the source, chain 3 of 3): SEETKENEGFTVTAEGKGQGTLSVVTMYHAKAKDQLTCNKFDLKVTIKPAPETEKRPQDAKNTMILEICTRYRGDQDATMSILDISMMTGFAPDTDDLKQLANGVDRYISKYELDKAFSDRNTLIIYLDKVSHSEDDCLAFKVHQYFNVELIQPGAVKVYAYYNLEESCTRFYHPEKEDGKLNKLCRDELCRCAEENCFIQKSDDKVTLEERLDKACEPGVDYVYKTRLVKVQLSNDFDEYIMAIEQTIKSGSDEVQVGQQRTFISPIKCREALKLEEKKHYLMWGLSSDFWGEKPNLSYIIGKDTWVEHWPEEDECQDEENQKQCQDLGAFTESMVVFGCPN

B1: avi-tagged, biotinylated EWE nanobody (VHH)
VHH: QVQLVETGGGLVQAGGSLRLSCAASGSIFSINAMGWFRQAPGKEREFVATINRSGGRTYYADSVKGRFTISRDNGKNMVYLQMHSLKPEDTAIYYCAAGTGWSPQTDNEYNYWGQGTQVTVSS
notes: hC3Nb1 nanobody; as the nanobody piece of m6; also called avi-tagged version of EWE; source: purified similarly to EWE (bacteria; HisTrap, Source 15S, SEC) and biotinylated; not shown: Avi tag, C-terminal, kept
On to B1, for which, in assay [1], the Kd turned out to be 2.2 nM.

B2: EWE-hC3Nb1 nanobody, bacterially expressed (VHH)
VHH: QVQLVETGGGLVQAGGSLRLSCAASGSIFSINAMGWFRQAPGKEREFVATINRSGGRTYYADSVKGRFTISRDNGKNMVYLQMHSLKPEDTAIYYCAAGTGWSPQTDNEYNYWGQGTQVTVSS
notes: hC3Nb1 nanobody, beginning with its N-terminal glutamine (Gln4 of EWE); as the nanobody piece of m6; also called EWE nanobody; source: LOBSTR cells (bacteria), purified (HisTrap, Source 15S, SEC); not shown: 6xHis, C-terminal, kept
B2: the results for the Kd (in assay [2]; with iC3b) were 3 nM and 3.6 nM, respectively.

B3: hC3Nb1 nanobody, bacterially expressed (VHH)
VHH: QVQLVETGGGLVQAGGSLRLSCAASGSIFSLNAMGWFRQAPGKEREFVATINRSGGRTYYADSVKGRFTISRDNGKNMVYLQMHSLKPEDTAIYYCAAGTGWSPQTDNEYNYWGQGTQVTVSS
notes: N-terminal methionine, retained according to mass spectrometry; hC3Nb1 nanobody; in the PDB entries of its complexes with C3b (6EHG) and C3 (6RU5); pET-22b(+) plasmid; Held on anti-penta-His sensors in BLI; also called parental hC3Nb1; hC3bNb1; source: LOBSTR cells (bacteria), purified (HisTrap, Source 15S, SEC)
For the molecule B3, in assay [3], the binding result was “binds”.

B4: hC3Nb1 Q1N (VHH)
VHH: NVQLVETGGGLVQAGGSLRLSCAASGSIFSLNAMGWFRQAPGKEREFVATINRSGGRTYYADSVKGRFTISRDNGKNMVYLQMHSLKPEDTAIYYCAAGTGWSPQTDNEYNYWGQGTQVTVSS
notes: hC3Nb1 nanobody with the N-terminal glutamine mutated to asparagine; parent as the nanobody piece of m6; The printed calculated mass (14182.7) fits a protein without the N-terminal methionine (my reckoning against 14327.9 for m6); source: expressed in bacteria, purified
For B4, the binding result in assay [4] is reported as “binds”.

B5: hC3Nb1 nanobody, mammalian expressed (VHH)
VHH: QVQLVETGGGLVQAGGSLRLSCAASGSIFSLNAMGWFRQAPGKEREFVATINRSGGRTYYADSVKGRFTISRDNGKNMVYLQMHSLKPEDTAIYYCAAGTGWSPQTDNEYNYWGQGTQVTVSS
notes: hC3Nb1 nanobody without the N-terminal methionine; in the PDB entries 6EHG and 6RU5; pcDNA 3.1 vector; The calculated mass differs from that of the bacterial construct by more than a methionine, so tag or ends may differ; source: HEK293, transiently transfected, purified from conditioned media (HisTrap excel, ion exchange, SEC)
Regarding B5, the binding result in assay [4] is given as “binds”.

B6: hC3Nb1 ΔQ1 (VHH)
VHH: VQLVETGGGLVQAGGSLRLSCAASGSIFSLNAMGWFRQAPGKEREFVATINRSGGRTYYADSVKGRFTISRDNGKNMVYLQMHSLKPEDTAIYYCAAGTGWSPQTDNEYNYWGQGTQVTVSS
notes: hC3Nb1 nanobody with the N-terminal glutamine deleted; parent as the nanobody piece of m6; The printed calculated mass (14068.6) fits a protein without the N-terminal methionine (my reckoning against 14327.9 for m6); source: expressed in bacteria, purified
On to B6, for which, in assay [4], the binding result is listed as “binds”.
